In paper PMC2171418 (The Journal of Cell Biology, 2005):

B1: Spc42p (natural protein, UniProt P36094 1-363, looked up)
chain: MNGSPTPKRYSSKSSRLYDDYYNIPYQYSNPTPMNRDYNDVGSRINADKLVPEEYKRNTEFINKAVQQNKELNFKLREKQNEIFELKKIAETLRSKLEKYVDITKKLEDQNLNLQIKISDLEKKLSDANSTFKEMRFPKVKDPMVDDDPVSENYDQINVPKHRAPDATGNPRTTNKVSNTSDQDSRLKAIERTLSVLTNYVMRSEDGNNDRMSPLPSPLNTILPINNRLNFQEPKRYNPTVKVNPSDDDIMMYESAELKRVEEEIEELKRKILVRKKHDLRKLSLNNQLQELQSMMDGDDNIKLDNVSKHNHATHRHSSQSSRDYSPSSDACLECSNDLYEKNRVKPENNMSETFATPTPNNR
B2: Spc29p (natural protein, UniProt P33419 1-253, looked up)
chain: MDYSNFGNSASKKFQDDTLNRVRKEHEEALKKLREENFSSNTSELGNKKHYRAQERMSSPLHRLSPTGKSDDRKVKSPLDDKLRRQLREGNTRLPPPPFSSYGMPPTNRSNLDRIRRRTSSPVRTDKFASQNVIDDQRLEIKYLERIVYDQGTVIDNLTSRITRLESFILNSISDRGDKNFASLEHSRSFSGFPTNKTYGLQMGGLYENDMPYRRSSDNINKEGAREDRSSQIHIENESTEDILKILSSSFHN
B3: Spc110p (natural protein, UniProt P32380 1-944, looked up)
chain: MDEASHLPNGSLKNMEFTPVGFIKSKRNTTQTQVVSPTKVPNANNGDENEGPVKKRQRRSIDDTIDSTRLFSEASQFDDSFPEIKANIPPSPRSGNVDKSRKRNLIDDLKKDVPMSQPLKEQEVREHQMKKERFDRALESKLLGKRHITYANSDISNKELYINEIKSLKHEIKELRKEKNDTLNNYDTLEEETDDLKNRLQALEKELDAKNKIVNSRKVDDHSGCIEEREQMERKLAELERKLKTVKDQVLELENNSDVQSLKLRSKEDELKNLMNELNELKSNAEEKDTQLEFKKNELRKRTNELNELKIKSDEMDLQLKQKQNESKRLKDELNELETKFSENGSQSSAKENELKMLKNKIAELEEEISTKNSQLIAKEGKLASLMAQLTQLESKLNQRDSQLGSREEELKKTNDKLQKDIRIAREETVSKDERIIDLQKKVKQLENDLFVIKKTHSESKTITDNELESKDKLIKILENDLKVAQEKYSKMEKELKEREFNYKISESKLEDEKTTLNEKISNLAAENSQLKNKIEDNSTATHHMKENYEKQLESLRKDIEEYKESAKDSEDKIEELKIRIAENSAKVSEKRSKDIKQKDEQISDLTQNLKLQEDEISSLKSIIDRYKKDFNQLKSEQSNIQHDLNLQILNLENKLIESEDELKSLRDSQKIEIENWKRKYNNLSLENDRLLTEKESASDKEREISILNRKLDEMDKEKWNLQESKEKYKRELQKVITANDRLRREKEELNENSNNIRIMEDKMTRIKKNYLSEITSLQEENRRLEERLILNERRKDNDSTMQLNDIISYYKLKYHSEVRHNNDLKVINDYLNKVLALGTRRLRLDTRKGEHSLNISLPDDDELDRDYYNSHVYTRYHDYEYPLRFNLNRRGPYFERRLSFKTVALLVLACVRMKRIAFYRRSDDNRLRILRDRIESSSGRISW

What follows are binders tested against Mlp2p–protein A (PrA) (S. cerevisiae, UniProt P40457 1-1679) (assay: far-Western, overlay or dot blot).
Mlp2p–protein A (PrA), sequence (P40457 whole entry): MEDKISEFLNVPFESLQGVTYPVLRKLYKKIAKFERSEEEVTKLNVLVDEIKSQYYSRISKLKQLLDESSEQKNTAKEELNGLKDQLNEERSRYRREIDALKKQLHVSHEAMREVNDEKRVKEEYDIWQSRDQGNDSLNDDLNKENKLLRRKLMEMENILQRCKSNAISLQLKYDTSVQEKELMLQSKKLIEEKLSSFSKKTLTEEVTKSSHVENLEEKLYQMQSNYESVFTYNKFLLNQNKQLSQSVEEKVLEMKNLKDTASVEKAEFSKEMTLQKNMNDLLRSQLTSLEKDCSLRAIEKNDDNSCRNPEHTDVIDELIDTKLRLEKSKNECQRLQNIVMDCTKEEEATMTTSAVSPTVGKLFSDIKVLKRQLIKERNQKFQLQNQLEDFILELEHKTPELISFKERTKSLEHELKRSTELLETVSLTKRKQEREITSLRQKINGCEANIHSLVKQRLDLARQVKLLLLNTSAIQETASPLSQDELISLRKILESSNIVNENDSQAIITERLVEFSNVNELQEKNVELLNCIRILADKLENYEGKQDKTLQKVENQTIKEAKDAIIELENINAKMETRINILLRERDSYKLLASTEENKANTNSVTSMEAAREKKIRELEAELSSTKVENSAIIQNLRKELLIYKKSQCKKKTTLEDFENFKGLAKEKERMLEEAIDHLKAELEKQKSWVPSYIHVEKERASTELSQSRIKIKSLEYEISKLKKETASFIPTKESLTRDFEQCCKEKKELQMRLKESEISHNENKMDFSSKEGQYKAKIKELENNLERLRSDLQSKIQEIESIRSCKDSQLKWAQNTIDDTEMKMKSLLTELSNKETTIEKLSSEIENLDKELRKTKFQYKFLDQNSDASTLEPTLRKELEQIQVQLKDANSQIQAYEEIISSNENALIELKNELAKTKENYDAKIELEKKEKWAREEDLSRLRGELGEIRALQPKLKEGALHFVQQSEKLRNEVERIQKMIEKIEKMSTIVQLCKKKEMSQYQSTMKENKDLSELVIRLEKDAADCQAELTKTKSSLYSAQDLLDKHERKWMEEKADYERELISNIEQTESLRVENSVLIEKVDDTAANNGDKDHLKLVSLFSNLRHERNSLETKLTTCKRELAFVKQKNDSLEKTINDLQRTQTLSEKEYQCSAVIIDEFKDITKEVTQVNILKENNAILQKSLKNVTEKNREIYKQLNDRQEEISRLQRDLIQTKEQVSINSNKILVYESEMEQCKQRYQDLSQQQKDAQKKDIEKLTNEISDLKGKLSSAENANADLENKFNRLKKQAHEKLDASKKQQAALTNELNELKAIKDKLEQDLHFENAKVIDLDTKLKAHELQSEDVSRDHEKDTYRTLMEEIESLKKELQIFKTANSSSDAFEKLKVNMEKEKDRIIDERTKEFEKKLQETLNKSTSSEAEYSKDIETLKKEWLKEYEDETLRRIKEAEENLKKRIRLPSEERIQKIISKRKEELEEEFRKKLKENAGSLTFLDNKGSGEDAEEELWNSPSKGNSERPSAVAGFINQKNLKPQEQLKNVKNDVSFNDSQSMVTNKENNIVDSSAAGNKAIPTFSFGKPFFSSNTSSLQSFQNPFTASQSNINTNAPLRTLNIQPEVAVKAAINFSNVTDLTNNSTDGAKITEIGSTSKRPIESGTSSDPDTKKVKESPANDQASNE

Row | Binder | binding result
1 | B1 | binds
2 | B2 | binds
3 | B3 | binds
